Reference: paper PMC6555819, “Comprehensive study of nuclear receptor DNA binding provides a revised framework for understanding receptor specificity”
Numbering of substitutions follows the chain as printed.

B1: NRC3_wobSeed137_DR5_A14T_o1 (dsDNA)
DNA 1: GCATATGTAGGTTTCATCCGGGTCATTCAGGCTATGGCGATTGACAGCGTAGAATGAAGG
DNA 2: CCTTCATTCTACGCTGTCAATCGCCATAGCCTGAATGACCCGGATGAAACCTACATATGC
B2: NRC3_wobSeed90_DR3_A28C_o1 (dsDNA)
DNA 1: GCCATACAGGGTCAGCTAGGCCAGAGTCGGGACGGCGCGATTGACAGCGTAGAATGAAGG
DNA 2: CCTTCATTCTACGCTGTCAATCGCGCCGTCCCGACTCTGGCCTAGCTGACCCTGTATGGC
B3: NRC3_wobSeed41_DR1_C24G_o1 (dsDNA)
DNA 1: GCATATGTAGGTTAAGGGTCATTGAGGTTGGTTCGCGCGATTGACAGCGTAGAATGAAGG
DNA 2: CCTTCATTCTACGCTGTCAATCGCGCGAACCAACCTCAATGACCCTTAACCTACATATGC
B4: NRC3_wobSeed144_DR5_T19G_o1 (dsDNA)
DNA 1: GCTCGAGTAGGTTACCAAGGGGGCATTCAGCTTTCTGCGATTGACAGCGTAGAATGAAGG
DNA 2: CCTTCATTCTACGCTGTCAATCGCAGAAAGCTGAATGCCCCCTTGGTAACCTACTCGAGC
B5: NRC3_wobSeed69_DR2_T5A_o1 (dsDNA)
DNA 1: GCAGACAAAGTTCACTAGGTAACGTAAGATTCAGCTGCGATTGACAGCGTAGAATGAAGG
DNA 2: CCTTCATTCTACGCTGTCAATCGCAGCTGAATCTTACGTTACCTAGTGAACTTTGTCTGC
B6: NRC3_wobSeed69_DR2_C6G_o1 (dsDNA)
DNA 1: B5 DNA 1 with A5T, C6G
DNA 2: B5 DNA 2 with G55C, T56A
B7: NRC3_wobSeed50_DR2_G7A_o1 (dsDNA)
DNA 1: GCCCTAATTGGTCAGGAGGTCACACACCGGATATGAGCGATTGACAGCGTAGAATGAAGG
DNA 2: CCTTCATTCTACGCTGTCAATCGCTCATATCCGGTGTGTGACCTCCTGACCAATTAGGGC
B8: NRC3_wobSeed5_DR0_C24G_o1 (dsDNA)
DNA 1: GCCCTTACGGGTCAAGGTTATAGGACGGGTGGTACGGCGATTGACAGCGTAGAATGAAGG
DNA 2: CCTTCATTCTACGCTGTCAATCGCCGTACCACCCGTCCTATAACCTTGACCCGTAAGGGC
B9: NRC3_wobSeed119_DR4_C7A_o1 (dsDNA)
DNA 1: GCGGAAAGAGGGCATTCGAGTTGATAGCATGGCGATGCGATTGACAGCGTAGAATGAAGG
DNA 2: CCTTCATTCTACGCTGTCAATCGCATCGCCATGCTATCAACTCGAATGCCCTCTTTCCGC
B10: NRC3_wobSeed119_DR4_G27A_o1 (dsDNA)
DNA 1: B9 DNA 1 with A7C, G27A
DNA 2: B9 DNA 2 with C34T, T54G
B11: NRC3_wobSeed66_DR2_o1 (dsDNA)
DNA 1: GCAATACAGGGTCACTAGGCCAGAGTAGGTACGAATGCGATTGACAGCGTAGAATGAAGG
DNA 2: CCTTCATTCTACGCTGTCAATCGCATTCGTACCTACTCTGGCCTAGTGACCCTGTATTGC
B12: NRC3_wobSeed66_DR2_G9A_o1 (dsDNA)
DNA 1: B11 DNA 1 with G9A
DNA 2: B11 DNA 2 with C52T
B13: NRC3_wobSeed124_DR5_C17T_o1 (dsDNA)
DNA 1: GCCCTACTGGGCCATTTAGAGGTCATTGATCATATGGCGATTGACAGCGTAGAATGAAGG
DNA 2: CCTTCATTCTACGCTGTCAATCGCCATATGATCAATGACCTCTAAATGGCCCAGTAGGGC
B14: NRC3_wobSeed124_DR5_A29G_o1 (dsDNA)
DNA 1: B13 DNA 1 with T17C, A29G
DNA 2: B13 DNA 2 with T32C, A44G
B15: NRC3_wobSeed122_DR5_C28A_o1 (dsDNA)
DNA 1: GCGCTAGTTGGTCAGTAAAAGGTCACAAACCGGTCGGCGATTGACAGCGTAGAATGAAGG
DNA 2: CCTTCATTCTACGCTGTCAATCGCCGACCGGTTTGTGACCTTTTACTGACCAACTAGCGC
B16: NRC3_wobSeed133_DR5_G21T_o1 (dsDNA)
DNA 1: GCCGTCCAAGGTCAATGCTATGTCAGTGAAAGCATTGCGATTGACAGCGTAGAATGAAGG
DNA 2: CCTTCATTCTACGCTGTCAATCGCAATGCTTTCACTGACATAGCATTGACCTTGGACGGC
B17: NRC3_wobSeed27_DR1_G7C_o1 (dsDNA)
DNA 1: GCACTCCGAGGACAAAGGTCAGAGCTACGCCAGTGAGCGATTGACAGCGTAGAATGAAGG
DNA 2: CCTTCATTCTACGCTGTCAATCGCTCACTGGCGTAGCTCTGACCTTTGTCCTCGGAGTGC
B18: NRC3_wobSeed100_DR4_A14C_o1 (dsDNA)
DNA 1: GCCCTACTGGGCCCCGAAAGGTCATTGATTCAGTGAGCGATTGACAGCGTAGAATGAAGG
DNA 2: CCTTCATTCTACGCTGTCAATCGCTCACTGAATCAATGACCTTTCGGGGCCCAGTAGGGC
B19: NRC3_wobSeed2_DR0_A22T_o1 (dsDNA)
DNA 1: GCCCTAGTTGGTCAAGGTCACTCACGCTATAGGTACGCGATTGACAGCGTAGAATGAAGG
DNA 2: CCTTCATTCTACGCTGTCAATCGCGTACCTATAGCGTGAGTGACCTTGACCAACTAGGGC
B20: NRC3_wobSeed21_DR0_T5A_o1 (dsDNA)
DNA 1: GCCGACAAAGTTCAAGGTAACGTAACAGAAAGCAGCGCGATTGACAGCGTAGAATGAAGG
DNA 2: CCTTCATTCTACGCTGTCAATCGCGCTGCTTTCTGTTACGTTACCTTGAACTTTGTCGGC
B21: NRC3_wobSeed22_DR0_T25C_o1 (dsDNA)
DNA 1: GCTTACCAAGGTGAAGGTCGTTGACCCCTCTGTAGAGCGATTGACAGCGTAGAATGAAGG
DNA 2: CCTTCATTCTACGCTGTCAATCGCTCTACAGAGGGGTCAACGACCTTCACCTTGGTAAGC
B22: NRC3_wobSeed101_DR4_o1 (dsDNA)
DNA 1: GCCCTTACGGGTCACTCCAGGTTATAGCATCGGAGTGCGATTGACAGCGTAGAATGAAGG
DNA 2: CCTTCATTCTACGCTGTCAATCGCACTCCGATGCTATAACCTGGAGTGACCCGTAAGGGC
B23: NRC3_wobSeed125_DR5_G21T_o1 (dsDNA)
DNA 1: GCCCTTACGGGTCACTGACATGTTATAGCATTTGGAGCGATTGACAGCGTAGAATGAAGG
DNA 2: CCTTCATTCTACGCTGTCAATCGCTCCAAATGCTATAACATGTCAGTGACCCGTAAGGGC
B24: NRC3_wobSeed125_DR5_T6C_o1 (dsDNA)
DNA 1: B23 DNA 1 with T6C, T21G
DNA 2: B23 DNA 2 with A40C, A55G
B25: NRC3_wobSeed98_DR4_T12C_o1 (dsDNA)
DNA 1: GCACTAGTTGGCCAGCTGAGGTCACACACAATTCGGGCGATTGACAGCGTAGAATGAAGG
DNA 2: CCTTCATTCTACGCTGTCAATCGCCCGAATTGTGTGTGACCTCAGCTGGCCAACTAGTGC
B26: NRC3_wobSeed74_DR3_G20T_o1 (dsDNA)
DNA 1: GCTCTAGTTGGTCACGGAGTTCACACACGACGGGTAGCGATTGACAGCGTAGAATGAAGG
DNA 2: CCTTCATTCTACGCTGTCAATCGCTACCCGTCGTGTGTGAACTCCGTGACCAACTAGAGC
B27: NRC3_wobSeed74_DR3_A14C_o1 (dsDNA)
DNA 1: B26 DNA 1 with A14C, T20G
DNA 2: B26 DNA 2 with A41C, T47G
B28: NRC3_wobSeed61_DR2_T24G_o1 (dsDNA)
DNA 1: GCCGTCCAAGGTCAGCAGGTCAGGGAAAGCGACGTGGCGATTGACAGCGTAGAATGAAGG
DNA 2: CCTTCATTCTACGCTGTCAATCGCCACGTCGCTTTCCCTGACCTGCTGACCTTGGACGGC
B29: NRC3_wobSeed61_DR2_G4C_o1 (dsDNA)
DNA 1: B28 DNA 1 with G4C, G24T
DNA 2: B28 DNA 2 with C37A, C57G
B30: NRC3_wobSeed61_DR2_o1 (dsDNA)
DNA 1: B28 DNA 1 with G24T
DNA 2: B28 DNA 2 with C37A
B31: NRC3_wobSeed61_DR2_G25A_o1 (dsDNA)
DNA 1: B28 DNA 1 with G24T, G25A
DNA 2: B28 DNA 2 with C36T, C37A
B32: NRC3_wobSeed86_DR3_T8G_o1 (dsDNA)
DNA 1: GCGCTGCGAGGTCAGGTTGGTCAGCTAACGGGTACGGCGATTGACAGCGTAGAATGAAGG
DNA 2: CCTTCATTCTACGCTGTCAATCGCCGTACCCGTTAGCTGACCAACCTGACCTCGCAGCGC
B33: NRC3_wobSeed72_DR2_A6C_o1 (dsDNA)
DNA 1: GCTCGCGTAGGTTACGGGGGCATTCAGGGATGAAGAGCGATTGACAGCGTAGAATGAAGG
DNA 2: CCTTCATTCTACGCTGTCAATCGCTCTTCATCCCTGAATGCCCCCGTAACCTACGCGAGC
B34: NRC3_wobSeed82_DR3_T21G_o1 (dsDNA)
DNA 1: GCATCGAAAGGTCGACGAGGGGAGTATACACCGTTTGCGATTGACAGCGTAGAATGAAGG
DNA 2: CCTTCATTCTACGCTGTCAATCGCAAACGGTGTATACTCCCCTCGTCGACCTTTCGATGC

Biological target: VDR:RXRa (Homo sapiens, UniProt P11473;P19793 full;full)
Assay: no ligand; PBM; 270 nM : 90 nM RXRa; PBS pH 7.4, 2% milk, 0.02% Triton X-100, 1 mM DTT, BSA, 0.4 mg/ml salmon testes DNA
Details: tags: His kept;His cleaved; copies: 1;1; label: surface-attached array probe
Procedure, shortened: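 Probes were double-stranded and carried 34-nt variable regions with direct-repeat seeds, single-nucleotide variants, half-site ablations and random human genomic background sequences, printed on custom Agilent 4×180K protein-binding microarrays. Arrays were incubated 1 h with ligand-free nuclear receptor dimers in PBS pH 7.4, 2% milk, 0.02% Triton X-100, 1 mM DTT, 0.2 mg/mL BSA and 0.4 mg/ml salmon testes DNA. Antibodies against each partner (one per run) detected binding, and scanned fluorescence was regression-normalized. Binding z-scores use the random background probes as reference.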

VDR:RXRa, sequence (P11473 whole entry, chain 1 of 2): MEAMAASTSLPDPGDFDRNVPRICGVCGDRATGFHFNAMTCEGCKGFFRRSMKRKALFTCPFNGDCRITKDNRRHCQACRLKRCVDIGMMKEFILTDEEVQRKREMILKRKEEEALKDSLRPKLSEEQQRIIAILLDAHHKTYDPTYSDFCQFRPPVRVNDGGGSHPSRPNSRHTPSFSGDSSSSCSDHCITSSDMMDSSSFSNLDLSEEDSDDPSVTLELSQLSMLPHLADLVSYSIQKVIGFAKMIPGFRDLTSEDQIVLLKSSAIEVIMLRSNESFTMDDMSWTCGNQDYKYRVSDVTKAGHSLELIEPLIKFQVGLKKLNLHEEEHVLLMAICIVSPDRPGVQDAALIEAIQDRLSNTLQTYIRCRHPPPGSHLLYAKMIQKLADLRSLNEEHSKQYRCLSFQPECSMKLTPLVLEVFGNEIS
VDR:RXRa, sequence (P19793 whole entry, chain 2 of 2): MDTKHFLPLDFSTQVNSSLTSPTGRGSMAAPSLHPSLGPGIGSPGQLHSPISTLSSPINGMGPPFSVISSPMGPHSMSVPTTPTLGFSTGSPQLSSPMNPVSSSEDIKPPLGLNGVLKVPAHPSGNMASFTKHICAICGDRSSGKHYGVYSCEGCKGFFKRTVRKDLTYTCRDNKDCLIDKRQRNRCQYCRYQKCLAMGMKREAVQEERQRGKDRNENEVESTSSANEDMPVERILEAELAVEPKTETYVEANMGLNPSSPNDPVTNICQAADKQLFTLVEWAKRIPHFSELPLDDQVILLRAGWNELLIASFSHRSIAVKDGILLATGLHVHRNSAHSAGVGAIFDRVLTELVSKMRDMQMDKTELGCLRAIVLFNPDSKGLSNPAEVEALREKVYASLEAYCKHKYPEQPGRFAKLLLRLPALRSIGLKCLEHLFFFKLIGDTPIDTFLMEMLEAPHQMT

Q: With B1 as the binder, how does the binding signal read?
A: 3.52 PBM z-score against 500 random probes

Q: B2 was tested. Which binding signal did it give?
A: 3.58 PBM z-score against 500 random probes

Q: With B3 as the binder, how does the binding signal read?
A: 6.5 PBM z-score against 500 random probes

Q: For B4, which binding signal is on record?
A: 3.47 PBM z-score against 500 random probes

Q: With B5 as the binder, how does the binding signal read?
A: 3.85 PBM z-score against 500 random probes

Q: Which binding signal does the source give for B6 here?
A: 3.33 PBM z-score against 500 random probes

Q: With B7 as the binder, how does the binding signal read?
A: 3.96 PBM z-score against 500 random probes

Q: With B8 as the binder, how does the binding signal read?
A: 3.5 PBM z-score against 500 random probes

Q: With B9 as the binder, how does the binding signal read?
A: 4.08 PBM z-score against 500 random probes

Q: How did the binding signal turn out when B10 was run?
A: 3.42 PBM z-score against 500 random probes

Q: With B11 as the binder, how does the binding signal read?
A: 4.15 PBM z-score against 500 random probes

Q: B12 was tested. Which binding signal did it give?
A: 4.1 PBM z-score against 500 random probes

Q: B13 was tested. Which binding signal did it give?
A: 3.9 PBM z-score against 500 random probes

Q: With B14 as the binder, how does the binding signal read?
A: 3.87 PBM z-score against 500 random probes

Q: With B15 as the binder, how does the binding signal read?
A: 3.68 PBM z-score against 500 random probes

Q: With B16 as the binder, how does the binding signal read?
A: 3.76 PBM z-score against 500 random probes

Q: For B17, which binding signal is on record?
A: 3.7 PBM z-score against 500 random probes

Q: How did the binding signal turn out when B18 was run?
A: 3.44 PBM z-score against 500 random probes

Q: How did the binding signal turn out when B19 was run?
A: 3.83 PBM z-score against 500 random probes

Q: How did the binding signal turn out when B20 was run?
A: 3.74 PBM z-score against 500 random probes

Q: With B21 as the binder, how does the binding signal read?
A: 4.04 PBM z-score against 500 random probes

Q: How did the binding signal turn out when B22 was run?
A: 4.06 PBM z-score against 500 random probes

Q: How did the binding signal turn out when B23 was run?
A: 3.4 PBM z-score against 500 random probes

Q: With B24 as the binder, how does the binding signal read?
A: 3.38 PBM z-score against 500 random probes

Q: How did the binding signal turn out when B25 was run?
A: 3.6 PBM z-score against 500 random probes

Q: For B26, which binding signal is on record?
A: 6.57 PBM z-score against 500 random probes

Q: For B27, which binding signal is on record?
A: 3.63 PBM z-score against 500 random probes

Q: With B28 as the binder, how does the binding signal read?
A: 4.03 PBM z-score against 500 random probes

Q: With B29 as the binder, how does the binding signal read?
A: 3.8 PBM z-score against 500 random probes

Q: With B30 as the binder, how does the binding signal read?
A: 3.97 PBM z-score against 500 random probes

Q: B31 was tested. Which binding signal did it give?
A: 4 PBM z-score against 500 random probes

Q: Which binding signal does the source give for B32 here?
A: 3.78 PBM z-score against 500 random probes

Q: Which binding signal does the source give for B33 here?
A: 3.92 PBM z-score against 500 random probes

Q: With B34 as the binder, how does the binding signal read?
A: 3.65 PBM z-score against 500 random probes
